# Assay results reported in patent US20230313187A1, “MODIFICATIONS OF MAMMALIAN CELLS USING ARTIFICIAL MICRO-RNA TO ALTER THEIR PROPERTIES AND THE COMPOSITIONS OF THEIR PRODUCTS” (DNA TWOPOINTO INC., priority 2020, published 2023).
# B1: SEQ ID NO: 210: three-hairpin amiRNA, guides SEQ ID NOs 82, 83, 84 complementary to Cricetulus griseus dihydrofolate reductase mRNA (nucleic acid)
# chain: ATCTGATCTTCTGAAGAAAATATATTTCTTTTTATTCATAGCTCTTAACTAGTGGTGATAGCAATGTCAGCAGTGCCTTAACTCATAGATCTAAAGCCAAGTGAAGCCACAGATGTTGGCTTTAGCTCTATGAGTTCAAGTAAGGTTGACCATACTCTACTCTAGAGTTGTGTTTTAATGTATATTAATGTTACTAATGTGTTTACTAGTGGTGATAGCAATGTCAGCAGTGCCTTAGAGTACAACAGTTGCCCAGGGTGAAGCCACAGATGCCTGGGCAACCGTTGTACTCTCAAGTAAGGTTGACCATACTCTACTCTAGGTTATTTTTAGTATGATTCTGTAAAAATGAATTAATACTAACTAGTGGTGATAGCAATGTCAGCAGTGCCTTTGTTTAGAATTATACAGGGGCGTGAAGCCACAGATGGCCCCTGTATCATTCTAAACACAAGTAAGGTTGACCATACTCTACTCTAGTCAGTTTTATTGATAGTCTTTTCAGTATTATTGATAATCTT
# System: Cricetulus griseus dihydrofolate reductase mRNA
# Experiment: Growth of a clonal cell line with amiRNA targeted toward dihydrofolate reductase with/without HT and MTX
# Type: cell-based
# Settings: 50 nM MTX, no HT
# Procedure: A monoclonal line (C426) was derived from the pool transfected with the transposon comprising multi-hairpin amiRNA with nucleotide sequence SEQ ID NO: 210 and selected with 800 μg/ml G418 described in Section 6.5.1. Growth of this clonal cell line in the presence and absence of HT and in the absence of HT and presence of 50 nM MTX was compared with the growth of a control cell line from which C426 was derived.
# Cells were transferred to Sigma Advanced Fed Batch media with 5 uM glutamine and to an initial a density of 0.3×10^6 live cells/ml. Parallel cultures were grown (a) in the presence of HT, (b) in the absence of HT and (c) in the absence of HT and the presence of 50 nM MTX. At day 4, all cultures were diluted to adjust viable cell densities to 0.3×10^6 cell/ml. At day 8, all cultures were again diluted to adjust viable cell densities to 0.3×10^6 cell/ml. At day 13, all cultures except for the culture of C426 with 50 nM MTX were again diluted to adjust viable cell densities to 0.3×10^6 cell/ml.
# Table 12. Growth of a clonal cell line with amiRNA targeted toward dihydrofolate reductase. […] Viable cell densities were measured at various times after the beginning of the experiment: the cell line is shown in column A, the presence of HT is indicated in column B and the concentration of MTX is shown in column C. […]
molecule,measurement,value
B1,effect of MTX in the growth media on growth,sensitizes cells to the presence of MTX in the growth media
